From paper PMC3846092

Molecular target: Cd^2+-bound Y82C-KcsA (UniProt P0A334)
Experiment: crystal structure

stoichiometry N: 4
Substance: Cd^2+-bound Y82C-KcsA (from UniProt P0A334 1-160) (natural protein)
